Measurements as given in patent US20110201549A1 (UNIVERSITY OF GEORGIA RESEARCH FOUNDATION, published 2011).

Target: T1, chymotrypsin-treated Cry3Bb (Bacillus thuringiensis, UniProt Q06117 162-652)
T1 construct: Insecticidal Cry toxin; It was coated on microtiter plates after chymotrypsin treatment; also called Cry3Bb protein; Cry3Bb toxin
T1 sequence: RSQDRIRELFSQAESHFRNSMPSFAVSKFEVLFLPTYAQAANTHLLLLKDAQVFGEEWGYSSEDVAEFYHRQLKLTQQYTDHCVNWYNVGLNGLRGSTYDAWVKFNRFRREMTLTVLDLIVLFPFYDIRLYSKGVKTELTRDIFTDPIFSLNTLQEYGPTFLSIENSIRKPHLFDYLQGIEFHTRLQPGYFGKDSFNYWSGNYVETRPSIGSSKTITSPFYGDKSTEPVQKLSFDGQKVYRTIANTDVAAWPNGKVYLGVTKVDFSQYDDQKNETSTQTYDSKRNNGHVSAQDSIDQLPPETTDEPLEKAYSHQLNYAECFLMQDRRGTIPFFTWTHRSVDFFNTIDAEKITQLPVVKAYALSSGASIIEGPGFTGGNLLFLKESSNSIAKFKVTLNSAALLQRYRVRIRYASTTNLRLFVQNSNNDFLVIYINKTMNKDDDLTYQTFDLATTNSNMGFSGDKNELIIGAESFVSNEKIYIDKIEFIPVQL
Test: ELISA-based microplate binding assay: plates coated with chymotrypsin-treated Cry3Bb, increasing concentrations of biotinylated TmCad1-TBR, streptavidin-HRP detection, one site saturation fit
Method: FIG. 7 illustrates TmCad1-TBR binding to Cry3Bb (Panel A) and enhancement of Cry3Bb toxicity to lesser mealworm by TmCad1-TBR peptides (Panel B). In Panel A, TmCad1-TBR binding to Cry3Bb protein was determined using an ELISA-based binding assay. Microtiter plates were coated with chymotrypsin-treated Cry3Bb and then incubated with increasing various concentrations of biotinylated TmCad1-TBR peptide. Bound biotinylated TmCad1-TBR peptide was detected with a Streptavidin-HRP conjugate and substrate. Non-specific binding was determined in the presence of 1000-fold excess unlabeled TmCad1-TBR peptide. Each data point is the mean of two experiments done in duplicate. Error bars depict standard deviation. Binding affinities (Kd) were calculated based on specifically bound biotinylated TmCad1-TBR peptide using a one site saturation binding equation. […] Cry3Bb inclusions without or with and increased amount of TmCad1-TBR inclusions were applied to semi-solid diet. One 1st instar darkling beetle larva was applied per well and the bioassays was scored on day 3. No toxicity was observed when treated with TmCad1-TBR peptide alone.
We tested the possibility that TmCad1-TBR binds a coleopteran-active Cry toxins using a microplate binding assay described previously (Zhang et al. 2008). […] TmCad1-TBR also enhances Cry3Bb toxicity to A. diaperinus larvae (FIG. 7A).

B1: TmCad1-TBR cadherin fragment from the Tenebrio molitor cadherin (T. molitor cadherin Toxin Binding Region) (receptor)
chain: MKQWYQRRVAITAGKDTTSKDKLQYNIDNITPSNLDLDIKSAFTMNTQSGDITINFEVKDSMEGYFTLDLSVQDEEPENHKADATLKIYIVTSKNTVVFRFENDQETVSDKAGDIKSVLDEEFQYETKVEAPTGNTTDGTPLTRSPVFFLNLNTNEPVDATEILKKVTNVDVFQRLKNNFSKVGLVLLSFDSSSETNENLEAHHHHHH
modifications: biotinylated (sites not given)
notes: also called CR12-MPED of TmCad1
  Kd: 13 nM
